{"source": "patent US10377818B2", "about": "“Method of treating glioma” (The Board of Trustees of the Leland Stanford Junior …, priority 2015, dated 2019)", "molecules": {"B1": {"name": "NLGN3: Recombinant full-length neuroligin-3 (Origene), tested as glioma mitogen (protein, listed as Mus musculus)", "chain": "MWLQPSLSLSPTPTVGRSLCLTLGFLSLVLRASTQAPAPTVNTHFGKLRGARVPLPSEILGPVDQYLGVPYAAPPIGEKRFLPPEPPPSWSGIRNATHFPPVCPQNIHTAVPEVMLPVWFTANLDIVATYIQEPNEDCLYLNVYVPTEDGSGAKKQGEDLADNDGDEDEDIRDSGAKPVMVYIHGGSYMEGTGNMIDGSVLASYGNVIVITLNYRVGVLGFLSTGDQAAKGNYGLLDQIQALRWVSENIAFFGGDPRRITVFGSGIGASCVSLLTLSHHSEGLFQRAIIQSGSALSSWAVNYQPVKYTSLLADKVGCNVLDTVDMVDCLRQKSAKELVEQDIQPARYHVAFGPVIDGDVIPDDPEILMEQGEFLNYDIMLGVNQGEGLKFVEGVVDPEDGVSGTDFDYSVSNFVDNLYGYPEGKDTLRETIKFMYTDWADRDNPETRRKTLVALFTDHQWVEPSVVTADLHARYGSPTYFYAFYHHCQSLMKPAWSDAAHGDEVPYVFGVPMVGPTDLFPCNFSKNDVMLSAVVMTYWTNFAKTGDPNKPVPQDTKFIHTKANRFEEVAWSKYNPRDQLYLHIGLKPRVRDHYRATKVAFWKHLVPHLYNLHDMFHYTSTTTKVPPPDTTHSSHITRRPNGKTWSTKRPAISPAYSNENAPGSWNGDQDAGPLLVENPRDYSTELSVTIAVGASLLFLNVLAFAALYYRKDKRRQEPLRQPSPQRGTGAPELGTAPEEELAALQLGPTHHECEAGPPHDTLRLTALPDYTLTLRRSPDDIPLMTPNTITMIPNSLVGLQTLHPYNTFAAGFNSTGLPHSHSTTRV"}}, "key": {"[1]": {"system": "HGG patient-derived cell lines (pediatric cortical glioblastoma, DIPG, adult glioblastoma)", "assay": "EdU proliferation index of various HGG patient-derived cell lines exposed to NLGN3", "format": "cell-based, human", "conditions": "50 nM NLGN3 for 24 hours", "experimental": "A) Recombinant NLGN3 promotes pediatric high-grade glioma cell proliferation in a dose-dependent manner, plateauing at a low nanomolar concentration. 7-point dose curve plots proliferation index as measured by EdU^+/DAPI^+ staining at 24 hours following exposure of SU-pcGBM2 cells to NLGN3 at concentrations ranging from 0-100 nM. Shaded region indicates concentration present in active CM. B) Proliferation indices of various HGG patient-derived cell lines exposed to 50 nM NLGN3 for 24 hours. Data are shown as mean±SEM. ***P<0.001 by unpaired two-tailed Student's t-tests. C) Neurexin-1β, which binds to NLGN3 with high affinity, abrogates the mitogenic effect of active slice CM. […]\nNLGN3 promotes proliferation in a broad range of HGG cultures. […] After 24-hour exposure, all cell lines were evaluated with the EdU assay to determine proliferation index (unpaired two-tailed Student's t-tests).\nTo assess the number of cells actively synthesizing new DNA in response to various conditions (see extended experimental procedures), SU-pcGBM2, SU-DIPGIV, SU-DIPGXIII, or SU-GBM035 cells were exposed to active CM or various recombinant proteins along with 10-μM EdU and fixed after 24 hours. EdU incorporation was determined using Click-iT EdU visualization (Invitrogen, Grand Island, N.Y.). […]"}, "[2]": {"system": "NLGN3 mRNA in SU-DIPGXIII cells", "assay": "qPCR of NLGN3 gene expression in DIPG cells", "format": "cell-based, human", "conditions": "50 nM recombinant NLGN3, 12 hour vs vehicle", "experimental": "A) Signaling through the PI3K pathway increases in response to NLGN3. Representative Western blot illustrating increased phosphorylation of AKT in response to various concentrations of NLGN3 ranging from 0-50 nM. p-AKT is shown in top panel; total AKT is shown in the bottom panel. B) Quantification of the increased fold change of pAKT/AKT ratio in response to NLGN3 at various doses (oneway ANOVA, F=17.99, P<001; data shown as mean±SEM; *P<0.05, **P<0.01, ***P<0.001 by Tukey's post-hoc tests to further examine pairwise comparisons). Fold change is normalized to blank media (aCSF). (C) Fos mRNA expression increases after 1 hour exposure to […] 50 nM NLGN3 (data shown as mean±SEM; **P<0.01 by unpaired two-tailed Student's t-test). D) NLGN3 mRNA expression increases after 12 hour exposure to 50 nM NLGN3 vs. vehicle in SU-[…] cells. […]\nAfter various cell treatments (described in extended experimental procedures), RNA was extracted from 500,000 SU-pcGBM2 or SU-[…] cells using TRIzol reagent. cDNA was generated using RT-PCR, and gene expression changes were further probed using quantitative PCR.\n500,000 SU-pcGBM2 cells were exposed to either aCSF, 50 nM NLGN3 (Origene Technologies, Rockville), 500 nM BKM120 (SelleckChem, Houston, Tex.), 50 nM EGF (Shenandoah, Warwick, R.I.), or a combination of the above treatments. […] Differential expression was determined using the delta CT method. […]"}}, "data": [{"molecule": "B1", "values": [{"measurement": "effect on proliferation index", "setting": "[1]", "value": "promoted a significant increase in the proliferation index"}, {"measurement": "NLGN3 gene expression", "setting": "[2]", "value": "increase in glioma cell NLGN3 gene expression"}]}]}
